In the DeepSol protein solubility set:

Test: soluble on expression in E. coli; label from the status in PepcDB or PDB records

| Sequence | soluble on expression in E. coli |
| --- | --- |
| MSLTFLTGVPGFLGTRLLRRLAAAAPDRSFLLLVQPKFEGRTHTLLADRGLADRATVLPGDITEPDLGLGAHYDAVAEQITRAVHLAAVYDLTIPREVGWQVNVEGTRHVLDLLAQCPSLERFGYVSSAYVSGERTGTIHEDELVHEAGFKNFYEETKYHAEVLVQDRMDEIPTLVFRPSIVVGDSETGATDKFDGVYFVLNALRSLPRYTPMTRIGSGTEPVNLVPVDFVVDAMGHLLGTEGHAGTVFHLTDPRPLTAQAIMELLADLLDKRVAYVPVPPGLARAMMKTGVGRALGLAPELIDYFDHPSHYDASNTRAALDGTGIDCPFLPDYAPAMVAYARRHDARSSAMYEGHHHHHH | not soluble |
| MKIYYEHDADLGFILGKKVAVLGFGSQGHAHALNLKDSGVDVRVGLRKGSRSWEKAEAAGLRVLPVAEAVREADVVMVLLPDEKQAQVYREEVEPNLKEGGALAFAHGFNVHFGQIKPRKDLDVWMVAPKGPGHLVRSEYQKGSGVPALVAVHQDASGSAFPTALAYAKAIGAARAGVIATTFKDETETDLFGEQAVLCGGLTRLIRAGFETLVEAGYPPEMAYFETVHEVKLIVDLIYEAGLKGMRYSISNTAEYGDYTRGDLAVPLEETKRRMREILRQIQSGEFAREWMLENQVGSPVLEANRKRWAAHPIEEVGSRLRAMMPFLKARVMEEVG | soluble |
| ATATAYVRSCDGASPPTPPGCGLKLVVDLTLDDSILTGSVLETEVMVTHALHESLFPRDAASDAAGTAATSLQVSLPPITVAMRRGAVQMRYGLTYLRTFPAALRDSVRVLKTAMSCDDGVTRCPSYMSMTGTLVSAPLGLCCLCTSVECALTSDLCNASMRAHFCFRTGAAGITCVQSEGITYHGWAVGSSSPYYMMHLSASGRGIAPTTLQLTTDAPEVQKGASALQILRASGVLPGESNPTVDISGRVLFVPSAEHSSASRSISTGPVRDDDPAEWLLLPAPLVSVSGNDCDKVGISPDYFYSLSSTKQCNAQKGTCVRHQLADYRAADLEQIAQGVGGRYIAASLGTFTRQAMREQEFLLDAVERTGGAMLRWTVNADGLVFQPLPVHGVLDAIKFDSSTGILYVTVRNNNTYGGLYYVAVGQCRGARASNCDSDGVTHECGRTALVAGANTSSLLQFSMVSDLPEEVGSTASCTVVFRDAAAALLASANISWTVEHTTTTPAPNAPKAEQCRRCAFRDLRCLFSTV | not soluble |
| MSLNSISHIPKAEIHVHLEATITPSLCRKFAKRNKVILSDDFFGSEYAYQWEDFYDFLKKYDIVTSVIHTPEDYYELTYAYLKECASHNVLYVEAMVSSTHAKAKGMTYQSFLDSIQEASLNAERDFGIVSRYLMNGIRHLGPESVQGTAEEVLKNPHPAIVGFGLAGDELHFPPHLFSKTFDMLKEENFPITVHAGEWDGPENIRKAINLLHPTRLGHGVRSIEDLDLVKEIIEKDIVLETCPTSNIATKIYENYENHPVKKLHELGAKVTVNSDDPPFFNATIQGEYEAMSKIGFADDVLISMTRNAIEYSFLDNQKKKEVLTKLNEGHHHHHH | soluble |
| MNVMLSKNYMMEKYNMSTTVGLPQFSHIKIEHFKSHLDALLKNHLEEIDRLLKENHHYTWDNLIYPLDSLADELERFWSPFAHMHAVMDSETIRESYEACLPLLSAYDAAIGHNQDLYEAIKSIDQHSLNPAQKKIIADSIQDFEL | not soluble |
| MGSDKIHHHHHHMKSVSVRSCKTYNYEEVKLSIEKNLEDIGGIDKFVKKGSKVLIKPNLLMKKKPEEATTTHPMVVKVVCEKLLELNCDITIADSPGGPYNQSSLKSIYKASGIEEVANELGIKLNYDVSDVKIHSEKAHVLKYMDIIKPIVDSDYIINLCKLKTHIMATFTGGTKNLYGCIAGLKKAEIHYRFPTEELFCENVLLDICDYIKPTLTIMDGIVGMEGDGPSAGTTREIGVLLASQNPYAIDVVACKIISLLPNRVATIRGAIKRGYIQEDFSDIEILGEDIKDLIIKNYKIPNVSKDLRLFSVKLPKFLNEPISKLITPKPVVRFQDCIKCGKCKEACPASTIEIGTKGAIIDLSKCIRCYCCHELCPKKAIDVKRNFVFKYVK | not soluble |
| MEKIIVRGGKQLNGSVKMEGAKNAVLPVIAATLLASKGTSVLKNVPNLSDVFTINEVLKYLNADVSFVNDEVTVDATGEITSDAPFEYVRKMRASIVVMGPLLARTGSARVALPGGCAIGSRPVDLHLKGFEAMGAVVKIENGYIEATAEKLVGAKVYLDFPSVGATQNIMMAATLAEGTTVIENVAREPEIVDLANFLNQMGARVIGAGTEVIRIEGVKELTATEHSIIPDRIEAGTFMIAAAITGGNVLIEDAVPEHISSLIAKLEEMGVQIIEEENGIRVIGPDKLKAVDVKTMPHPGFPTDMQSQMMVIQMLSEGTSIMTETVFENRFMHVEEMRRMNADMKIEGHSVIISGPAKLQGAEVAATDLRAAAALILAGLVADGYTQVTELKYLDRGYNNFHGKLQALGADVERVDDSKVDVTNLASLF | not soluble |
| MITQSSLLTYPLAGCLNRLANKSSQVKQRLQTHANETVCFRIDSLASLSVTITQDGHFTTAAKDTQAAVILDIAAELIPRIASGEMAAFDKIIICGDPELADTLLYMGKIFQAGIEENLSSVMGDVLARRATLTGQELVRWHLGSIRNLSRALGEFLSEEQPVTASRNRFHQLASEVESLQRRILRLEKRITALVPSFSSIAGNLPRTGR | not soluble |
| MRRLNRFKAPDEKVNTLFQVYKTISFWKVVKNTVVVEFGRFFPWMGGKRNIYRACLGMKIGKKTAIAYKVMPDLFFPEKITIGENSIIGYHTTILTHEYLLSEYHVGEVVIGKNVMVGANVTILPGIEIGDGAIVAAGAVVSKDVPPESFAYGNPLVIKEKAALEHHHHHH | soluble |
| MSLTTFLFRNGALLDPDHPDLLQGFEILIEDGFIREVSDKPIKSSNAHVIDVKGKTIMPGLIDLHVHVVAIEFNLPRVATLPNVLVTLRAVPIMRAMLRRGFTTVRDAGGAGYPFKQAVESGLVEGPRLFVSGRALSQTGGHADPRARSDYMPPDSPCGCCVRVGALGRVADGVDEVRRAVREELQMGADQIKIMASGGVASPTDPVGVFGYSEDEIRAIVAEAQGRGTYVLAHAYTPAAIARAVRCGVRTIEHGNLIDDETARLVAEHGAYVVPTLVTYDALASEGEKYGLPPESIAKIADVHGAGLHSIEIMKRAGVKMGFGTDLLGEAQRLQSDEFRILAEVLSPAEVIASATIVSAEVLGMQDKLGRIVPGAHADVLVVDGNPLKSVDCLLGQGEHIPLVMKDGRLFVNELEGHEGHHHHHH | soluble |
| CFTPESTALLESGVRKPLGELSIGDRVLSMTANGQAVYSEVILFMDRNLEQMQNFVQLHTDGGAVLTVTPAHLVSVWQPESQKLTFVFADRIEEKNQVLVRDVETGELRPQRVVKVGSVRSKGVVAPLTREGTIVVNSVAASCYA | soluble |
| STQVSQATSQPINFQVQKDGSSEKSHMDDYMQHPGKVIKQNNKYYFQTVLNNASFWKEYKFYNANNQELATTVVNDNKKADTRTINVAVEPGYKSLTTKVHIVVPQINYNHRYTTHLEFEKAIPTLADAAK | not soluble |
| MDYSKIIKEVGRGKNHARDLDQPTAYALYKAMLAGQVPALELGGILIAFRIKGESEQEILGFYQAMQEQVMSLRAPVDRPLPVVIPSYNGARKQANLTPLLALLLSRLGLPVVVHGVTEDSSRVTSAEIFQQLNIPWSLSVQEAQQRLDNGLPVFIPVSALSMQLDQQLQQRWRMGVRNSSHTLAKLATPFTHDKALRVASVSHPEYMQKVGGFFQAISAPGLLLQGTEGEVYANPLRCPPIHYINDGEQTILLDRSSESVVPELPLSKDAVITARWIEGCLAGEQPIPDSILKQLACCLVAAGQADSVELALQQIKIV | not soluble |
| KRMYNREKLRKLFDKEETPEVTGLKDNQERFFTYSIRAAHMNINTKSNIKVLKNGEETFPDIFKAMRKAESYIHIEYYMFKSDMLGRGMMDIMMEKARQGVEVRFLYDAAGSMKLARRDIMRMKQAGVDIVPFSPLKYGFFNQKLNFRNHRKIVIIDGKTGFVGGLNVGKEYISRDPYIGFWRDTHLRLEGEIVQTLHAIFMLDWEYVSNEVLIDQEEYNTPVPVEGGGIYQIVATGPDMKESMSDLYYEMISSAQKSIWIATPYFVPNESIRTALKAAATKGVEVRVMVPEKNDSFLTQYASRSYFPELLLEGIEVYSYQKGFMHQKVMIIDGDLASVGTANMDMRSFQLNFEVNVFFTDAEAIRTLEAHFEEDMQESEKLSPVGFYKRGVADR | not soluble |
